Measured values taken from PMC4165372, “Nutritional status modulates box C/D snoRNP biogenesis by regulated subcellular relocalization of the R2TP complex” (Genome Biology, 2014).

T1: GST-Nop58-447 (S. cerevisiae, UniProt Q12499 1-447)
T1 construct: Cloned in pGEX-6P-1 (BamHI-XhoI); source: E. coli BL21(DE3) pRIL, purified (glutathione Sepharose 4B); not shown: GST, N-terminal, kept
T1 sequence (looked up): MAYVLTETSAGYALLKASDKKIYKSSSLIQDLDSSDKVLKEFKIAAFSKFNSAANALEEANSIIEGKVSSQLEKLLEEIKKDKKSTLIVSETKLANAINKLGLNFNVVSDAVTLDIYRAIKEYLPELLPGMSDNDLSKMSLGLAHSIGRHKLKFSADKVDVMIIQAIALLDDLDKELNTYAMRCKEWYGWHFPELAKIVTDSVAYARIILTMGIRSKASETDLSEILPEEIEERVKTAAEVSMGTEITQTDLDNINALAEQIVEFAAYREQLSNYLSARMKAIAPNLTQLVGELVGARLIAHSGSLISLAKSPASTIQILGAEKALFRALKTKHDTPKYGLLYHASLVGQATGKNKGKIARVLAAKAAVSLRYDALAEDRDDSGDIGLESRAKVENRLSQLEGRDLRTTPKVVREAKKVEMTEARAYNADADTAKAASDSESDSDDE

B1: GST-Nop58-MC (domain or fragment, S. cerevisiae, UniProt Q12499 158-447, looked up)
chain: KVDVMIIQAIALLDDLDKELNTYAMRCKEWYGWHFPELAKIVTDSVAYARIILTMGIRSKASETDLSEILPEEIEERVKTAAEVSMGTEITQTDLDNINALAEQIVEFAAYREQLSNYLSARMKAIAPNLTQLVGELVGARLIAHSGSLISLAKSPASTIQILGAEKALFRALKTKHDTPKYGLLYHASLVGQATGKNKGKIARVLAAKAAVSLRYDALAEDRDDSGDIGLESRAKVENRLSQLEGRDLRTTPKVVREAKKVEMTEARAYNADADTAKAASDSESDSDDE
notes: Nop58, S. cerevisiae, middle and C-terminal domains (lacks the N-terminal domain and the KKE/D repeat); start worked out from the forward primer NOP58-472-BamHI-F (nucleotide 472 = codon 158); The forward primer adds an ATG before the first Nop58 codon; also called pGST-Nop58-MC; pGEX-Nop58-MC; source: E. coli BL21(DE3) pRIL, purified (glutathione Sepharose 4B); not shown: GST, N-terminal, kept
B2: Pih1(1–230) (domain or fragment, S. cerevisiae, UniProt P38768 1-230, looked up)
chain: MADFLLRPIKQRHRNEDKYVSVDAADGSVSKIEPIADFVIKTKLLSANGPEKLQDGRKVFINVCHSPLVPKPEVDFNARIVFPLIIQNEWEIPIITSCYRMDHDKKGQECYVWDCCINSDCSRWICDDIQLREILVEWCLESCEIRDSVVLCRDRIAFPKMKKKGAELPALEVLNDELHQDYKAKMHKIIEEEAGDPMSILRGRNDDGDDNNDPDDGTLPPLFPIENKIS
notes: Pih1, S. cerevisiae, N-terminal domain, residues 1-230 of 344; also called N-terminal domain of Pih1
B3: GST-Nop58-NM (domain or fragment, S. cerevisiae, UniProt Q12499 1-284, looked up)
chain: MAYVLTETSAGYALLKASDKKIYKSSSLIQDLDSSDKVLKEFKIAAFSKFNSAANALEEANSIIEGKVSSQLEKLLEEIKKDKKSTLIVSETKLANAINKLGLNFNVVSDAVTLDIYRAIKEYLPELLPGMSDNDLSKMSLGLAHSIGRHKLKFSADKVDVMIIQAIALLDDLDKELNTYAMRCKEWYGWHFPELAKIVTDSVAYARIILTMGIRSKASETDLSEILPEEIEERVKTAAEVSMGTEITQTDLDNINALAEQIVEFAAYREQLSNYLSARMKAIA
notes: Nop58, S. cerevisiae, N-terminal and middle domains (lacks the C-terminal domain); end worked out from the reverse primer NOP58-852-XhoI-R (nucleotide 852 = codon 284); also called pGST-Nop58-NM; pGEX-Nop58-NM; source: E. coli BL21(DE3) pRIL, purified (glutathione Sepharose 4B); not shown: GST, N-terminal, kept
B4: full-length Pih1 (natural protein, S. cerevisiae, UniProt P38768 1-344, looked up)
chain: MADFLLRPIKQRHRNEDKYVSVDAADGSVSKIEPIADFVIKTKLLSANGPEKLQDGRKVFINVCHSPLVPKPEVDFNARIVFPLIIQNEWEIPIITSCYRMDHDKKGQECYVWDCCINSDCSRWICDDIQLREILVEWCLESCEIRDSVVLCRDRIAFPKMKKKGAELPALEVLNDELHQDYKAKMHKIIEEEAGDPMSILRGRNDDGDDNNDPDDGTLPPLFPIENKISGAKIEEIDKNEIAHRNLKQAPAPAPAPHEQQEDVPEYEVKMKRFKGAAYKLRILIENKAPNSKPDRFSPSYNFAENILYINGKLSIPLPRDIVVNAADIKIFHIRKERTLYIYI
notes: Pih1, S. cerevisiae, 344 amino acids
B5: GST-Nop58-C (domain or fragment, S. cerevisiae, UniProt Q12499 285-447, looked up)
chain: PNLTQLVGELVGARLIAHSGSLISLAKSPASTIQILGAEKALFRALKTKHDTPKYGLLYHASLVGQATGKNKGKIARVLAAKAAVSLRYDALAEDRDDSGDIGLESRAKVENRLSQLEGRDLRTTPKVVREAKKVEMTEARAYNADADTAKAASDSESDSDDE
notes: also called pGST-Nop58-C; pGEX-Nop58-C; source: E. coli BL21(DE3) pRIL, purified (glutathione Sepharose 4B; MagneGST Glutathione Particles for the reconstitution with Rvb1/2 or R2TP); not shown: GST, N-terminal, kept

What was measured:
Settings in all cases: both partners purified
[1] = target: B4; test: pull-down; GST-Nop58 variants immobilised on glutathione Sepharose 4B, incubated with Pih1 or Pih1(1–230) 40 min at 30°C in GST lysis buffer (1×PBS, 0.1% NP40, 10% glycerol, 1 mM DTT); washes with 0.5 M NaCl; Ponceau S and Western blot
[2] = target: B3; test: as above
[3] = target: B1; test: as above
[4] = target: T1, GST-Nop58-447; test: as above
[5] = target: B2; test: as above
[6] = target: T2, R2TP complex (recombinant, preformed) (S. cerevisiae, UniProt Q03940 1-463; Q12464 1-471; P25638 1-111; P38768 1-344); test: pull-down; GST-Nop58-C on MagneGST glutathione particles incubated with 0.1 μM preformed Rvb1/2 or R2TP complex at 4°C for 16 h; washed with buffer H with 0.1 M KCl at 23°C; Western blot
T2 construct: Rvb1, S. cerevisiae; Rvb2, S. cerevisiae, untagged; Tah1, S. cerevisiae; Pih1, S. cerevisiae, untagged; also called preformed R2TP complex purified from E. coli; source: preformed complex purified from E. coli; not shown: His6 (HV-tag, with TEV site), N-terminal, cleaved; copies: + + +

[7] = target: T3, Rvb1/Rvb2 complex (S. cerevisiae, UniProt Q03940 1-463; Q12464 1-471); test: as above
T3 construct: Rvb1, S. cerevisiae; Rvb2, S. cerevisiae, untagged; also called Rvb1/2; preformed Rvb1/2; source: E. coli BL21(DE3) pRIL, co-expressed (pCOLADuet-1), purified (Ni-NTA, TEV protease, Superdex 200); not shown: His6 (HV-tag, with TEV site), N-terminal, cleaved
T3 sequence (Q03940 whole entry, chain 1 of 2): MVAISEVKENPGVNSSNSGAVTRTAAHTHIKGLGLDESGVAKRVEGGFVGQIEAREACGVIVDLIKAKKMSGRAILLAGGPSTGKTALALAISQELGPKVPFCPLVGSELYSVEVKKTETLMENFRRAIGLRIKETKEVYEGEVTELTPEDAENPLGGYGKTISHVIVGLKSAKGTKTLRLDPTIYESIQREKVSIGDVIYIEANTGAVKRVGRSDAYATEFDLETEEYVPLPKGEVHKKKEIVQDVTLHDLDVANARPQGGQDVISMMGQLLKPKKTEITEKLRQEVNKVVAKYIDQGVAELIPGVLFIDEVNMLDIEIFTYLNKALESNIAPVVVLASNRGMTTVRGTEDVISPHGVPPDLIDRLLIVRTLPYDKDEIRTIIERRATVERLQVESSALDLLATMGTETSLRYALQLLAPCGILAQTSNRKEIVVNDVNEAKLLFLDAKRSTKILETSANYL
T3 sequence (Q12464 whole entry, chain 2 of 2): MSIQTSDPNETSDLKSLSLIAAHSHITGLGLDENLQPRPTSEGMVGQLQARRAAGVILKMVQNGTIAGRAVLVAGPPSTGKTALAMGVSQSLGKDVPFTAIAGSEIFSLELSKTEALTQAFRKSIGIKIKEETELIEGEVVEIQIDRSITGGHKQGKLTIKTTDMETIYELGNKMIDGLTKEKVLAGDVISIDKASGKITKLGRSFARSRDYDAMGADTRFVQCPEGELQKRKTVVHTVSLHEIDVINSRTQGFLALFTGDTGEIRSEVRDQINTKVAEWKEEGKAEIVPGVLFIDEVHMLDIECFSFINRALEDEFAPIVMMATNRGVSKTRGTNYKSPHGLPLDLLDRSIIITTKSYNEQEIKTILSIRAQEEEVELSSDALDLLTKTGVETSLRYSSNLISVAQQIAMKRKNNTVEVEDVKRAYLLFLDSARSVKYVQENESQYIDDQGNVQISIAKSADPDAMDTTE

T2 sequence (Q03940 whole entry, chain 1 of 3): as the sequence (Q03940 whole entry, chain 1 of 2) above
T2 sequence (Q12464 whole entry, chain 2 of 3): as the sequence (Q12464 whole entry, chain 2 of 2) above
T2 sequence (P25638 whole entry, chain 3 of 3): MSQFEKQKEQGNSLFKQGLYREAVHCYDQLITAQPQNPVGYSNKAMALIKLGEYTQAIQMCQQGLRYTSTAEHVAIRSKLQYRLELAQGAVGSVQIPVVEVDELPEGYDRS

Row | binding result [1] | binding result [4] | Binder | further results
1 | binds | – | B1 | –
2 | – | binds | B2 | binding result [2]: binds; binding result [3]: binds
3 | binds | – | B3 | –
4 | – | binds | B4 | –
5 | binds | – | B5 | binding result [5]: binds; binding result [6]: binds; binding result [7]: binds
